Patent US20190144535A1 (AGENCY FOR SCIENCE TECHNOLOGY AND RESEARCH, published 2019)

B1: Fab clone 2H (Fab, V domains shown)
VH: QVQLQQWGAGLLKPSETLSLTCAVYGGSFSDYYWSWIRQPPGKGLEWIGEIDHSGSTNYNPSLKSRVTISVDTSRNQFSLSLSSVTAADTAVYYCARASPSSGWTLDYWGQGTLVTVSS
VL: QSVLTQPPSVSVSPGQTASITCSGDKLGDKFAFWYQQKPGQSPVLVIYLDNKRPSGIPERFSGSNSGNTATLTISGTQALDEADYYCQAWDSNIEVFGGGTKLTVLG
B2: P1E8 (antibody, V domains shown)
VH: QVQLQQWGAGLLKPSETLSLTCAVYGGSFSDYYWSWIRQPPGKGLEWIGEIDHSGSTNYNPSLKSRVTISVDTSKNQFSLKLSSVTAADTAVYYCARASPSSGWTLDYWGQGTLVTVSS
VL: QSVLTQPPSVSVSPGQTASITCSGDKLGDKFAFWYQQKPGQSPVLVIYLDNKRPSGIPERFSGSNSGNTATLTISGTQALDEADYYCEAWDAAAEVFGGGTKLTVLG
B3: P2D8 (antibody, V domains shown)
VH: QVQLQQWGAGLLKPSETLSLTCAVYGGSFSDYYWSWIRQPPGKGLEWIGEIDHSGSTNYNPSLKSRVTISVDTSRNQFSLSLSSVTAADTAVYYCARASPSSGWTLDYWGQGTLVTVSS
VL: QSVLTQPPSVSVSPGQTASITCSGDKLGDKFAFWYQQKPGQSPVLVIYLDNKRPSGIPERFSGSNSGNTATLTISGTQALDEADYYCEAWADTYEVFGGGTKLTVLG
notes: also called matured Ig P2D8
B4: P2D7 (antibody, V domains shown)
VH: QVQLQQWGAGLLKPSETLSLTCAVYGGSFSDYYWSWIRQPPGKGLEWIGEIDHSGSTNYNPSLKSRVTISVDTSRNQFSLSLSSVTAADTAVYYCARASPSSGWTLDYWGQGTLVTVSS
VL: QSVLTQPPSVSVSPGQTASITCSGDKLGDKFAFWYQQKPGQSPVLVIYLDNKRPSGIPERFSGSNSGNTATLTISGTQALDEADYYCYAWADTYEVFGGGTK
notes: claim 45 pairs 17 with 14); also called matured Ig P2D7
B5: P1D9 (antibody, V domains shown)
VH: QVQLQQWGAGLLKPSETLSLTCAVYGGSFSDYYWSWIRQPPGKGLEWIGEIDHSGSTNYNPSLKSRVTISVDTSRNQFSLSLSSVTAADTAVYYCARASPSSGWTLDYWGQGTLVTVSS
VL: QSVLTQPPSVSVSPGQTASITCSGDKLGDKFAFWYQQKPGQSPVLVIYLDNKRPSGIPERFSGSNSGNTATLTISGTQALDEADYYCYAWDNAYEVFGGGTKLTVLG
notes: also called matured Ig P1D9
B6: P1H8 (antibody, V domains shown)
VH: QVQLQQWGAGLLKPSETLSLTCAVYGGSFSDYYWSWIRQPPGKGLEWIGEIDHSGSTNYNPSLKSRVTISVDTSRNQFSLSLSSVTAADTAVYYCARASPSSGWTLDYWGQGTLVTVSS
VL: QSVLTQPPSVSVSPGQTASITCSGDKLGDKFAFWYQQKPGQSPVLVIYLDNKRPSGIPERFSGSNSGNTATLTISGTQALDEADYYCQAWADSFEVFGGGTKLTVLG
notes: also called matured Ig P1H8
B7: IgG1 2H (antibody, V domains shown)
VH: QVQLQQWGAGLLKPSETLSLTCAVYGGSFSDYYWSWIRQPPGKGLEWIGEIDHSGSTNYNPSLKSRVTISVDTSRNQFSLSLSSVTAADTAVYYCARASPSSGWTLDYWGQGTLVTVSS
VL: QSVLTQPPSVSVSPGQTASITCSGDKLGDKFAFWYQQKPGQSPVLVIYLDNKRPSGIPERFSGSNSGNTATLTISGTQALDEADYYCQAWDSNIEVFGGGTKLTVLG
notes: also called IgG 2H; IgG clone 2H
B8: Fab clone 1H (Fab, V domains shown)
VH: EVQLVQSGAEVKKPGASVKVSCKASGYTFTSYYMHWVRQAPGQGLEWMGLVDPEDGETIYAEKFQGRVTITADTSTDTAYMELSSLRSEDTAVYYCARVEWVAGTEGWGYYFDYWGQGTLVTVSS
VL: NFMLTQPHSVSESPGKTVTIPCTASSGSIANNFVQWYQQRPGSAPTTVIYEDSQRPSGVPDRVSGSIDSSSNSASLTISGLKTEDEADYYCQSYDSANDRVTFGGGTKLIVLG
B9: IgG1 1H (antibody, V domains shown)
VH: EVQLVQSGAEVKKPGASVKVSCKASGYTFTSYYMHWVRQAPGQGLEWMGLVDPEDGETIYAEKFQGRVTITADTSTDTAYMELSSLRSEDTAVYYCARVEWVAGTEGWGYYFDYWGQGTLVTVSS
VL: NFMLTQPHSVSESPGKTVTIPCTASSGSIANNFVQWYQQRPGSAPTTVIYEDSQRPSGVPDRVSGSIDSSSNSASLTISGLKTEDEADYYCQSYDSANDRVTFGGGTKLIVLG

What was measured:
human IL-1β [1] = biological target: T1, human IL-1β (human, UniProt P01584 117-269); test: cell-based or functional assay
mouse IL-1β [2] = biological target: T2, mouse IL-1β (mouse, UniProt P10749 118-269); test: cell-based or functional assay
human IL-1β [3] = biological target: T1, human IL-1β; test: cell-based or functional assay; remark: listed apart in the source
human IL-1β [4] = biological target: T1, human IL-1β; test: ProteOn bioanalyzer (BioRad)
Experimental: (§1) Matured clones (except P1E8) were tested for affinity towards mouse and human IL-1β using the ProteOn bioanalyzer (BioRad, Hercules, USA).

mouse IL-1β [5] = biological target: T2, mouse IL-1β; test: ProteOn bioanalyzer (BioRad)
Experimental: as §1

mouse IL-1β [6] = biological target: T2, mouse IL-1β; test: ProteOn bioanalyzer (BioRad); end of the range tied to P2D7 by Table 1
Experimental: as §1

mouse IL-1β [7] = biological target: T2, mouse IL-1β; test: ProteOn bioanalyzer (BioRad); end of the range tied to P1H8 by Table 1
Experimental: as §1

mouse IL-1β [8] = biological target: T2, mouse IL-1β; test: cell-based or functional assay; remark: listed apart in the source
mouse IL-1β [9] = biological target: T2, mouse IL-1β; test: direct ELISA, OD 460 nm against IgG 2H concentration

Row | Binder | EC50, inhibition of mouse IL-1β-induced IL-6 secretion by MRC5 cells (mouse IL-1β [2]) | EC50, inhibition of human IL-1β-induced IL-6 secretion by MRC5 cells (human IL-1β [3]) | Kd (human IL-1β [4]) | Kd (mouse IL-1β [5]) | further results
1 | B1 | – | – | – | – | IC50 (concentration inhibiting 50% of IL-1β activity), HEK-Blue IL-1β cells, SEAP reporter (human IL-1β [1]): 0.21 nM
2 | B2 | 0.479 nM | 0.0453 nM | – | – | –
3 | B3 | 0.197 nM | 0.011 nM | 0.00457 nM | 0.0166 nM | –
4 | B4 | 0.158 nM | 0.00653 nM | 0.0031 nM | 0.0109 nM | fold higher affinity compared to IgG 2H (mouse IL-1β [6]): 3 to 13 fold
5 | B5 | 0.241 nM | 0.0207 nM | 0.00673 nM | 0.0236 nM | –
6 | B6 | 0.623 nM | 0.0215 nM | 0.0101 nM | 0.0489 nM | fold higher affinity compared to IgG 2H (mouse IL-1β [7]): 3 to 13 fold
7 | B7 | 1.25 nM | 0.148 nM | 0.0783 nM | 0.142 nM | inhibition potency (EC50), human IL-1β induced IL-6 production in MRC5 cells (human IL-1β [1]): 0.35 nM; potency (EC50), neutralization in HEK-Blue cells stimulated with 4 pM human IL-1β (human IL-1β [1]): 0.17 nM; potency (EC50), neutralization in HEK-Blue cells stimulated with mouse IL-1β (mouse IL-1β [8]): 1.5 nM; EC50 (read off the curve) (mouse IL-1β [9]): ~0.3 nM
8 | B8 | – | – | – | – | IC50 (concentration inhibiting 50% of IL-1β activity), HEK-Blue IL-1β cells, SEAP reporter (human IL-1β [1]): 1.31 nM
9 | B9 | – | – | – | – | inhibition potency (EC50), human IL-1β induced IL-6 production in MRC5 cells (human IL-1β [1]): 3.92 nM; potency (EC50), neutralization in HEK-Blue cells stimulated with 4 pM human IL-1β (human IL-1β [1]): 2.6 nM; potency (EC50), neutralization in HEK-Blue cells stimulated with mouse IL-1β (mouse IL-1β [8]): 11.5 nM
